Data reported in paper PMC4589512 (Nature cell biology, 2015).

Biological target: CGG-CC1 (human, UniProt Q13586 233-343)
Experiment: SPR

Chain of CGG-CC1 (Q13586 233-343): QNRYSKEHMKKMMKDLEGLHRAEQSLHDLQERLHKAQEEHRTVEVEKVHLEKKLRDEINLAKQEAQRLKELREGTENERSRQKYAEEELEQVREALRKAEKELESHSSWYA

B1: STIMATE-CT (analyte of the SPR) (domain or fragment)
chain: DNFLMRKGKTKAKLEERGANQDSRNGSKVRYRRAASHEESESEILISADDEMEESDVEEDLRRLTPLKPVKKKKHRFGLPV
- Kd: 8.9 ± 0.7 µM
